Experimental findings from patent US20240034786A1 (WUXI BIOLOGICS IRELAND, published 2024) are described below.

Assay [1] has as its target T1, Human P-cadherin on cells (human, UniProt P22223 108-829).
T1 construct: whole, on cells; Endogenous P-cadherin on tumour cell lines; also called hPro1
In words: FACS on DU-145 cells. Here is the method:
(§1) Binding of the test antibodies to P-cadherin expressed on cells was determined by flow cytometry analysis. […] 1×10⁵ cells/well (100 μL) were added to each well of a 96-well U-plate (Corning, #3799) and centrifuged at 1500 rpm (Eppendorf, #5810R) for 5 minutes before removing the supernatant. Antibodies serially diluted in 1% BSA/1×PBS (Ca+/Mg+) were added at 100 μL/well to the pelleted cells and incubated at 4° C. for 1 hour. Anon-related hIgG1 antibody was used as an isotype control. Cells were washed two times with 180 μL/well of 1% BSA/1×PBS (Ca+/Mg+) by centrifugation at 1500 rpm for 5 minutes at 4° C. Pelleted cells were resuspended in 100 μL/well Alexa647 conjugated Goat anti-human IgG Fc (Jackson, #109-605-098) 1:500 diluted in 1% BSA/1×PBS (Ca+/Mg+) for 30 minutes at 4° C. in the dark. Cells were then washed two times as described above. After the final wash, cells were resuspended in 100 μL 1% BSA/1×PBS (Ca+/Mg+) and fluorescence values were measured with a FACS Canto II cytometer (BD Biosciences). The amount of cell surface bound anti-P-cadherin antibody was assessed by measuring the mean fluorescence (MFI). The FACS raw data were analyzed by FlowJo software, wells containing no antibody or secondary antibody only were used to establish background fluorescence. Binding EC50 values were obtained by the four-parameter non-linear regression analysis using GraphPad Prism6 software.

The target of assay [2] is T1, Human P-cadherin on cells. In words: FACS on HCT-116 cells. The procedure: as §1
Binding of the antibodies to human P-cadherin expressed on cells was determined by flow cytometry analysis.

The target in assay [3] is T1, Human P-cadherin on cells. In words: cell-based or functional assay.
For assay [4], the target named is T1, Human P-cadherin on cells. In words: FACS on NCI-H1650 cells. The procedure: as §1
Assay [5] has as its target T2, WBP319-hPro2.ECD.His (R&D) (human, UniProt P12830 155-709).
T2 construct: extracellular domain; Bought protein; also called human E-Cadherin.ECD.His; Human E-Cadherin
T2 sequence (looked up): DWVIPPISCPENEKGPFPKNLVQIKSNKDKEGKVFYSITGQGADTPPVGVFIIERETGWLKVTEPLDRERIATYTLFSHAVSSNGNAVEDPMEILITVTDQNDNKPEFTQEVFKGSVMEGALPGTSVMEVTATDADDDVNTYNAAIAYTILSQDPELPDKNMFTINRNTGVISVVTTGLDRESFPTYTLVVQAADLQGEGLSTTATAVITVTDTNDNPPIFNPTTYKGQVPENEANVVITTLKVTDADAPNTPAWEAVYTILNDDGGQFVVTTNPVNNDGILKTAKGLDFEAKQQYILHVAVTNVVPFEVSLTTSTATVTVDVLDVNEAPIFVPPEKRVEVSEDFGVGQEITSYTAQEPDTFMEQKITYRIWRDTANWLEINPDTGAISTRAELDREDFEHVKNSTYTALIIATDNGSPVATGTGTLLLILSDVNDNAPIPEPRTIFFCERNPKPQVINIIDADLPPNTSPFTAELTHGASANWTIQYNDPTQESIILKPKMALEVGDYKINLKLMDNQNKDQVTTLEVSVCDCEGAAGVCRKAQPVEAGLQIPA
The assay is described as follows: capture ELISA, antigen held by anti-His antibody. The procedure:
The binding of the antibodies to human E-Cadherin.ECD.His (R&D-8505-NC-050, WBP319-hPro2.ECD.His (R&D)) and human N-Cadherin.ECD.His (R&D-1388-NC-050, WBP319-hPro3.ECD.hFcHis (R&D)) were tested by a captured protein binding ELISA. 96-well high protein binding ELISA plates (Nunc MaxiSorp, ThermoFisher, Cat #: 442404) were coated overnight at 4° C. with 1 μg/mL capture antibody (THETM His Tag mAb, GenScript, Cat #: A00186) in Carbonate-bicarbonate buffer (20 mM Na2CO3, 180 mM NaHCO3, pH=9.2). All wells were washed three time with 300 μL per well of PBS/0.5‰ Tween-20 (v/v) and all the following wash steps in the assay were performed the same. The wells were then blocked for one hour with 3% milk (Shanghai Dingguo-DH220)/1×PBS (Ca+/Mg+) (Gibco, #14040-117) and washed three times, followed by binding of 1 μg/mL antigens in 3% milk/1×PBS (Ca+/Mg+) for 1 hour at room temperature and three washes afterwards. […]
For the binding detection, 100 μL Tetramethylbenzidine (TMB) Substrate solution (Invitrogen, Cat #: 002023) was added to all wells for 10 minutes before stopping the reaction with 100 μL 2M HCl. The extent of the testing Abs binding to WBP319-hPro2.ECD.His (R&D)) and WBP319-hPro3.ECD.hFcHis (R&D) were determined by measuring the OD450 absorbance using the SpectraMax® M5e microplate reader. […]
Background: ELISA stands for enzyme-linked immunosorbent assay.

Assay [6] deals with T3, Cyno P-cadherin on W319-CHOK1.cynoPro1.FL cells (cynomolgus, UniProt A0A2K5WPN9 108-829).
T3 construct: whole, on cells; also called cynomolgus P-cadherin; W391-CHOK1.cynoPro1.FL (transient)
The assay is described as follows: FACS on CHOK1 cells transiently expressing cyno P-cadherin. Here is the method: as §1, with “Binding EC50 values were obtained by the four-parameter non-linear regression analysis using GraphPad Prism6 software.” left out
Binding of the test antibodies to cynomolgus P-cadherin expressed on cells was determined by flow cytometry analysis. […]

T1 sequence (P22223 108-829): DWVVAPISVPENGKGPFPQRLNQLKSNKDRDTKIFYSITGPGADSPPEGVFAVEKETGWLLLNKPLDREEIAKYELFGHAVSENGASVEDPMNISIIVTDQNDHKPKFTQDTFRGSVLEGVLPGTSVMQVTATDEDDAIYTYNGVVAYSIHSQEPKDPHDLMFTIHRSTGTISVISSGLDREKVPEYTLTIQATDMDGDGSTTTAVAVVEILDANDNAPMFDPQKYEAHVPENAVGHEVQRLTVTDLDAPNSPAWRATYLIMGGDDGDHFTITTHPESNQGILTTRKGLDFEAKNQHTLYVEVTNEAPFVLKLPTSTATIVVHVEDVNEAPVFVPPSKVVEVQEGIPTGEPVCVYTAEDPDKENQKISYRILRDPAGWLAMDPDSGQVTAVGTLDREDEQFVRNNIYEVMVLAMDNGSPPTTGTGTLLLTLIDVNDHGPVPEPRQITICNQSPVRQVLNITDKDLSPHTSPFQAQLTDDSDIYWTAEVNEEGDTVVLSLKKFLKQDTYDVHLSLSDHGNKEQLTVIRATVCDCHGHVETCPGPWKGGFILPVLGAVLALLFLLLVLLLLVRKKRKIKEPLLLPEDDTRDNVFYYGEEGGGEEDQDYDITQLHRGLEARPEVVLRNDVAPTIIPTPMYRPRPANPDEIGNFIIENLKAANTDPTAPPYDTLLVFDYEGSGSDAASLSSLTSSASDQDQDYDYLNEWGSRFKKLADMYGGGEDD

B1: W3195-1.53.1-p1-uIgG1L (antibody)
heavy: not shown
light: SYELTQPPSVSVSPGQTAQITCSGDKLGDKFASWYQQKSGQSPVVVIYQDNKRPSGFPERFSGSNSGNTATLTISGTQAMDEADYYCQAWDSSIVVFGGGTKLTVLGQPKAAPSVTLFPPSSEELQANKATLVCLISDFYPGAVTVAWKADSSPVKAGVETTTPSKQSNNKYAASSYLSLTPEQWKSHRSYSCQVTHEGSTVEKTVAPTECS
notes: also called W3195-p1 antibody
The EC50 is the concentration that produces a half-maximal response. The low end stands for greater potency, the high end for weaker potency. On to B1, for which the concentration giving a half-maximal response (EC50) is 70 pM in assay [1]; 150 pM in assay [2]; 220 pM in assay [4]; over 100000 pM in assay [5]; 95 pM in assay [6]. For the same molecule, the “Max MFI” value turned out to be 2100 in assay [1] and 4080 in assay [2]. For the same molecule, the “internalization, Fab-ZAP on HCC-1954, IC50” value in assay [3] came to 69 pM. Besides, the “internalization, Fab-ZAP on HCC-1954, Max Inh %” value in assay [3] stood at 81%.
